Key:
[1] = tested on: Cc1cc(=O)oc2cc(NC(=O)[C@H](CCCNC(=N)N)NC(=O)[C@H](CC(C)C)NC(=O)OCc3ccccc3)ccc12; test: purified protein; details: 100 mM sodium acetate pH 5.5, 10 mM DTT, 37°C
[2] = tested on: Cc1cc(=O)oc2cc(NC(=O)[C@H](CCCNC(=N)N)NC(=O)[C@H](CCCNC(=N)N)NC(=O)OCc3ccccc3)ccc12; test: purified protein; details: 100 mM sodium acetate pH 5.5, 10 mM DTT, 37°C
Excerpt: (§1) fluorogenic AMC release, initial rates, ORIGIN fit on knowpain-4 (KP4)

[3] = tested on: Cc1cc(=O)oc2cc(NC(=O)[C@H](CCCNC(=N)N)NC(=O)[C@H](Cc3ccccc3)NC(=O)OCc3ccccc3)ccc12; test: purified protein; details: 100 mM sodium acetate pH 5.5, 10 mM DTT, 37°C
Excerpt: as §1

[4] = biological target: T1, knowpain-4 (KP4) (Plasmodium knowlesi, UniProt A0A384LCH8); test: inhibition of Z-LR-AMC hydrolysis, fluorescence; format: biochemical; details: 10 µM inhibitor, 10 nM enzyme, 5 min preincubation, sodium acetate pH 5.5, 25 µM Z-LR-AMC; covalent
T1 construct: gene PKNH_0912800

[5] = biological target: T2, knowpain-3 (KP3) (Plasmodium knowlesi, UniProt A0A384KX24); test: inhibition of Z-LR-AMC hydrolysis, fluorescence; format: biochemical; details: 10 µM inhibitor, 100 nM enzyme, 5 min preincubation, sodium acetate pH 5.5, 25 µM Z-LR-AMC; covalent
T2 construct: gene PKNH_0912900
T2 sequence (A0A384KX24 entry or part of it): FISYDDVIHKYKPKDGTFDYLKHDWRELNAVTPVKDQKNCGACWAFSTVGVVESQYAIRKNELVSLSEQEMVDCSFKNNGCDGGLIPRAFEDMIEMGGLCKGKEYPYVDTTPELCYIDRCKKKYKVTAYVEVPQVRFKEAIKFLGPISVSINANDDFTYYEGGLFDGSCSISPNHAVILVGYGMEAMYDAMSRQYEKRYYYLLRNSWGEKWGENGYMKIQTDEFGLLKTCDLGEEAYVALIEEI

T1 sequence (A0A384LCH8 entry or part of it): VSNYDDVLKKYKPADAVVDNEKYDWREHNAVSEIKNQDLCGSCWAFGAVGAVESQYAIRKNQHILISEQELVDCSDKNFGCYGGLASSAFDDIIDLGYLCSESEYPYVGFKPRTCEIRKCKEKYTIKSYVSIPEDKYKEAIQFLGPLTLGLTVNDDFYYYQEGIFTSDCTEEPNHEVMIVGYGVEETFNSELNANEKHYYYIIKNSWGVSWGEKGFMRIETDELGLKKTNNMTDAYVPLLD

Row | Molecule | Km [1] | kcat [1] | kcat/Km [1] | Km [2] | kcat [2] | kcat/Km [2] | Km [3] | kcat [3] | kcat/Km [3] | % of control activity at 10 μM [4] | % of control activity at 10 μM [5]
1 | knowpain-3 (KP3) (Plasmodium knowlesi strain H) | 30.56 ± 1.23 µM | 0.0156 s⁻¹ | 511 M⁻¹ s⁻¹ |  |  |  |  |  |  |  | 
2 | knowpain-2 (KP2) (Plasmodium knowlesi strain H) | 14.26 ± 0.27 µM | 0.0011 s⁻¹ | 75.6 M⁻¹ s⁻¹ |  |  |  |  |  |  |  | 
3 | knowpain-4 (KP4) (Plasmodium knowlesi strain H) | 4.20 ± 0.25 µM | 0.0129 s⁻¹ | 3070 M⁻¹ s⁻¹ | 2.13 ± 0.17 µM | 0.0435 s⁻¹ | 20500 M⁻¹ s⁻¹ | 4.20 ± 0.19 µM | 0.0062 s⁻¹ | 1470 M⁻¹ s⁻¹ |  | 
4 | CC(C)C[C@H](NC(=O)[C@@H]1O[C@H]1C(=O)O)C(=O)NCCCCN=C(N)N [E64, trans-epoxysuccinyl-L-leucylamido-(4-guanidino) butane] |  |  |  |  |  |  |  |  |  | blocked by the cysteine protease inhibitors E64 and leupeptin | blocked by the cysteine protease inhibitors E64 and leupeptin

Source: paper PMC3520923, “Expression, Characterization, and Cellular Localization of Knowpains, Papain-Like Cysteine Proteases of the Plasmodium knowlesi Malaria Parasite” (PLoS ONE, 2012)
